Patent US20250276018A1 (AFFYIMMUNE THERAPEUTICS, published 2025)
Changes are numbered by the printed parent chain. Names may count otherwise. Where two headings read alike, the source gives them in different places.

How the values were obtained:
[1] = molecular target: T1, c-MET on human target cells (human, UniProt P08581 25-1390); assay: cell-based or functional assay
[2] = molecular target: T1, c-MET on human target cells; assay: cell-based or functional assay; remark: listed apart in the source
[3] = molecular target: T1, c-MET on human target cells; assay: cell-based or functional assay; remark: listed apart in the source
[4] = molecular target: T1, c-MET on human target cells; assay: cell-based or functional assay; remark: listed apart in the source
[5] = molecular target: T1, c-MET on human target cells; assay: cell-based or functional assay; remark: listed apart in the source
[6] = molecular target: T1, c-MET on human target cells; assay: cell-based or functional assay; remark: listed apart in the source
[7] = molecular target: T1, c-MET on human target cells; assay: cell-based or functional assay; remark: listed apart in the source
[8] = molecular target: T1, c-MET on human target cells; assay: cell-based or functional assay; remark: listed apart in the source
[9] = molecular target: T1, c-MET on human target cells; assay: cell-based or functional assay; remark: listed apart in the source
[10] = molecular target: T1, c-MET on human target cells; assay: cell-based or functional assay; remark: listed apart in the source
[11] = molecular target: T1, c-MET on human target cells; assay: cell-based or functional assay; remark: listed apart in the source
[12] = molecular target: T2, AF647 labeled c-met protein (UniProt P08581 25-932, limits assumed, labeled with AlexaFluor 647 (AF647)); assay: flow cytometry, AF647-labeled c-met protein titrated on CAR-T cells (Round 1)
T2 construct: Soluble labeled c-met protein titrated on CAR-T cells
Method: (§1) Binding of labeled c-MET to CAR-T cells expressing the affinity tuned c-MET scFvs was evaluated by transducing lentivirus anti-c-MET CAR particles into human T cells to form c-MET CAR-T cells incubated with AF647-labeled c-MET. […] Following a 48 hr. incubation at 37° C., the culture media was brought up to […] per well and incubated at 37° C. for 10 days.
(§2) Cells were stained on ice for 30 mins and then washed with PBS. After washing, residually bound protein on CAR T cells were measured on a flow cytometer (Beckman, CytoFLEX®). The resulting binding data was fit using a non-linear regression analysis on GraphPad Prism to calculate half effective dose concentration (EC₅₀) values. The results of this analysis are shown in FIGS. 2-5 and Tables 2-5 below.

[13] = molecular target: T2, AF647 labeled c-met protein; assay: flow cytometry, AF647-labeled c-met protein titrated on CAR-T cells (Round 2)
Method: as §1, §2

[14] = molecular target: T2, AF647 labeled c-met protein; assay: flow cytometry, EC50 relative to parental Affy7 CAR-T cells (Round 2)
Method: as §1, §2

[15] = molecular target: T1, c-MET on human target cells; assay: cell-based or functional assay; remark: listed apart in the source
[16] = molecular target: T1, c-MET on human target cells; assay: cell-based or functional assay; remark: listed apart in the source
[17] = molecular target: T1, c-MET on human target cells; assay: cell-based or functional assay; remark: listed apart in the source
[18] = molecular target: T1, c-MET on human target cells; assay: cell-based or functional assay; remark: listed apart in the source

T2 sequence (P08581 25-932 limits assumed): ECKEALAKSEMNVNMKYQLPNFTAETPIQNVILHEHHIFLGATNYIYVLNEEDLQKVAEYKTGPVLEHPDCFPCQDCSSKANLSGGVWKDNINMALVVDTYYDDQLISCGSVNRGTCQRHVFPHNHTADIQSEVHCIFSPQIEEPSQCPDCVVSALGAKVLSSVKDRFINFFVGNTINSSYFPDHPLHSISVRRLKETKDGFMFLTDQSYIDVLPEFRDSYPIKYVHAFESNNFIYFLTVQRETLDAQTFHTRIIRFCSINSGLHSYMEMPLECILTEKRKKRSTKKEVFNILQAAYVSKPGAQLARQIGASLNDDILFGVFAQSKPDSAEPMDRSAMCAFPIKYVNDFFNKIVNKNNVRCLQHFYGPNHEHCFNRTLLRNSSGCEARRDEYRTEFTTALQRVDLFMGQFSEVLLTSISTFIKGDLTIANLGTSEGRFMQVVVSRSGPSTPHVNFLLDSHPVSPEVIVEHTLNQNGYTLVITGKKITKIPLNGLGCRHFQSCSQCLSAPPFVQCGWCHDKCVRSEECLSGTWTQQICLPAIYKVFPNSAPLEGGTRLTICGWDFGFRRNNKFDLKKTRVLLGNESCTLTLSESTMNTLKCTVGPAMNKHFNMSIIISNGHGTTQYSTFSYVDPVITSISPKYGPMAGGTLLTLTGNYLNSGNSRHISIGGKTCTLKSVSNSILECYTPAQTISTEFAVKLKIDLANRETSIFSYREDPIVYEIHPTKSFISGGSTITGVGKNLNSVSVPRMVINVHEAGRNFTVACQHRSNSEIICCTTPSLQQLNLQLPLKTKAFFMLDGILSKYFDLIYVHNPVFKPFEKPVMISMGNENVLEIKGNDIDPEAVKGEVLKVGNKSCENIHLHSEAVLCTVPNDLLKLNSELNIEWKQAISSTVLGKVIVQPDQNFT
T1 sequence (P08581 25-1390): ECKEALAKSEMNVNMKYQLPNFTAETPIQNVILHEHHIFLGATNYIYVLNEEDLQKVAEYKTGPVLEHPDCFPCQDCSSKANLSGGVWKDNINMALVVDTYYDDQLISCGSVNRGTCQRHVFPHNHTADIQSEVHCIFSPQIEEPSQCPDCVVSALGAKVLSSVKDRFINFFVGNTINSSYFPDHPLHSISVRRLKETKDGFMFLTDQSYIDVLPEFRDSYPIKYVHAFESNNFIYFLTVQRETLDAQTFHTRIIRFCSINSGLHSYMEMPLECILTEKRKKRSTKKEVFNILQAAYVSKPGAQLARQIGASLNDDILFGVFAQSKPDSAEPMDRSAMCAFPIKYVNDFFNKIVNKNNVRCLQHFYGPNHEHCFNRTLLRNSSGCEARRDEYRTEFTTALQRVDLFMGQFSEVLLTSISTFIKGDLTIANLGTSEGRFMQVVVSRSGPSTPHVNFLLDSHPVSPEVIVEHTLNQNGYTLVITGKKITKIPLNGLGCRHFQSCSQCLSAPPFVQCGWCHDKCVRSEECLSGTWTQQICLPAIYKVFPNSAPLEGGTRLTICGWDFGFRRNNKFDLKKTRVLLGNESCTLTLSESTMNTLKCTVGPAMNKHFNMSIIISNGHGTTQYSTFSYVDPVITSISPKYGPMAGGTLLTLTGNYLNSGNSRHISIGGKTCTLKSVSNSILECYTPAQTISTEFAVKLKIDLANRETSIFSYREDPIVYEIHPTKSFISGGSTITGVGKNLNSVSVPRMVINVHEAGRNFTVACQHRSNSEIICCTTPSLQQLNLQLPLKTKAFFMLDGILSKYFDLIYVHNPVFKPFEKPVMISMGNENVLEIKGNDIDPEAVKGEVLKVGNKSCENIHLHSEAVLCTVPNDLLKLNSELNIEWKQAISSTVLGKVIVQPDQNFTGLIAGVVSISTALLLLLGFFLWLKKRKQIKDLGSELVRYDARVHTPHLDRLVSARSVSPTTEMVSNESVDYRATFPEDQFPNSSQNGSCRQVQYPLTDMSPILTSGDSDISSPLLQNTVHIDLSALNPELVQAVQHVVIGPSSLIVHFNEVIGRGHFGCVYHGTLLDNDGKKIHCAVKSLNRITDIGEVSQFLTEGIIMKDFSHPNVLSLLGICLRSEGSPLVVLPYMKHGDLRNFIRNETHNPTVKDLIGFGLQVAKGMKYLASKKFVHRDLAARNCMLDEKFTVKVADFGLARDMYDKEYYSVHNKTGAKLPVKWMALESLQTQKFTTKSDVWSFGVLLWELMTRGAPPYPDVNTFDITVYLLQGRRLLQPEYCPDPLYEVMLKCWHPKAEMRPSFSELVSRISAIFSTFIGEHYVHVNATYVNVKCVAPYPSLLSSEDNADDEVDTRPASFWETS

B1: Affy7 CAR (control) (other)
chain: GSEQKLISEEDLGSQVQLQQSGPELVRPGASVKMSCRASGYTFTSYWLHWVKQRPGQGLEWIGMIDPSNSDTRFNPNFKDKATLNVDRSSNTAYMLLSSLTSADSAVYYCATYGSYVSPLDYWGQGTSVTVSSGGGGSGGGGSGGGGSDIMMSQSPSSLTVSVGEKVTVSCKSSQSLLYTSSQKNYLAWYQQKPGQSPKLLIYWASTRESGVPDRFTGSGSGTDFTLTITSVKADDLAVYYCQQYYAYPWTFGGGTKLEIKRASTTTPAPRPPTPAPTIASQPLSLRPEACRPAAGGAVHTRGLDFACDFWVLVVVGGVLACYSLLVTVAFIIFWVRSKRSRLLHSDYMNMTPRRPGPTRKHYQPYAPPRDFAAYRSLRVKFSRSADAPAYQQGQNQLYNELNLGRREEYDVLDKRRGRDPEMGGKPRRKNPQEGLYNELQKDKMAEAYSEIGMKGERRRGKGHDGLYQGLSTATKDTYDALHMQALPPR
notes: residues of P2A left at the intracellular C-terminus are not included; also called parent Affy7 CAR-T cells; parental Affy7
percent cytotoxicity, SNU638, 24 hrs [1]: 78.6%
percent cytotoxicity, SNU638, 48 hrs [1]: 95.9%
percent cytotoxicity, SNU638, 72 hrs [1]: 99.5%
percent cytotoxicity, Hs746T, 24 hrs [2]: 87.1%
percent cytotoxicity, Hs746T, 48 hrs [2]: 97.6%
percent cytotoxicity, Hs746T, 72 hrs [2]: 99.2%
percent cytotoxicity, H1993, 24 hrs [3]: 85.6%
percent cytotoxicity, H1993, 48 hrs [3]: 97.7%
percent cytotoxicity, H1993, 72 hrs [3]: 99.6%
cytotoxicity, Normal Human Lung Cells, 8 hrs [4]: 14.7
cytotoxicity, Normal Human Lung Cells, 16 hrs [4]: 33.3
cytotoxicity, Normal Human Lung Cells, 24 hrs [4]: 50.7
cytotoxicity, Normal Human Lung Cells, 32 hrs [4]: 57.1
cytotoxicity, Normal Human Lung Cells, 40 hrs [4]: 59.9
cytotoxicity, Normal Human Lung Cells, 47 hrs [4]: 56.5
cytotoxicity, Normal Human Lung Cells, 8 hrs [5]: 31.8
cytotoxicity, Normal Human Lung Cells, 16 hrs [5]: 35.7
cytotoxicity, Normal Human Lung Cells, 24 hrs [5]: 43.2
cytotoxicity, Normal Human Lung Cells, 32 hrs [5]: 55.8
cytotoxicity, Normal Human Lung Cells, 40 hrs [5]: 67.5
cytotoxicity, Normal Human Lung Cells, 48 hrs [5]: 76
cytotoxicity, Normal Human Liver Cells, 8 hrs [6]: 17.7
cytotoxicity, Normal Human Liver Cells, 16 hrs [6]: 30.1
cytotoxicity, Normal Human Liver Cells, 24 hrs [6]: 38.6
cytotoxicity, Normal Human Liver Cells, 32 hrs [6]: 46.2
cytotoxicity, Normal Human Liver Cells, 40 hrs [6]: 59.1
cytotoxicity, Normal Human Liver Cells, 48 hrs [6]: 68.7
cytotoxicity, Normal Human Liver Cells, 8 hrs [7]: 23.4
cytotoxicity, Normal Human Liver Cells, 16 hrs [7]: 36.9
cytotoxicity, Normal Human Liver Cells, 24 hrs [7]: 50.7
cytotoxicity, Normal Human Liver Cells, 32 hrs [7]: 64
cytotoxicity, Normal Human Liver Cells, 40 hrs [7]: 71.2
cytotoxicity, Normal Human Liver Cells, 48 hrs [7]: 73.4
cytotoxicity, Normal Human Kidney Cells, 8 hrs [8]: 12.5
cytotoxicity, Normal Human Kidney Cells, 16 hrs [8]: 27.2
cytotoxicity, Normal Human Kidney Cells, 24 hrs [8]: 32.4
cytotoxicity, Normal Human Kidney Cells, 32 hrs [8]: 36.9
cytotoxicity, Normal Human Kidney Cells, 40 hrs [8]: 47.4
cytotoxicity, Normal Human Kidney Cells, 48 hrs [8]: 59
cytotoxicity, Normal Human Kidney Cells, 8 hrs [9]: 32.7
cytotoxicity, Normal Human Kidney Cells, 16 hrs [9]: 43.5
cytotoxicity, Normal Human Kidney Cells, 24 hrs [9]: 53.8
cytotoxicity, Normal Human Kidney Cells, 32 hrs [9]: 61.2
cytotoxicity, Normal Human Kidney Cells, 40 hrs [9]: 70.2
cytotoxicity, Normal Human Kidney Cells, 48 hrs [9]: 76.5
cytotoxicity, Normal Human Colon Cells, 8 hrs [10]: 13.8
cytotoxicity, Normal Human Colon Cells, 16 hrs [10]: 29.3
cytotoxicity, Normal Human Colon Cells, 24 hrs [10]: 34.9
cytotoxicity, Normal Human Colon Cells, 32 hrs [10]: 42.8
cytotoxicity, Normal Human Colon Cells, 40 hrs [10]: 54.1
cytotoxicity, Normal Human Colon Cells, 48 hrs [10]: 60.1
cytotoxicity, Normal Human Colon Cells, 8 hrs [11]: 28.5
cytotoxicity, Normal Human Colon Cells, 16 hrs [11]: 33.9
cytotoxicity, Normal Human Colon Cells, 24 hrs [11]: 43.2
cytotoxicity, Normal Human Colon Cells, 32 hrs [11]: 57
cytotoxicity, Normal Human Colon Cells, 40 hrs [11]: 69.7
cytotoxicity, Normal Human Colon Cells, 48 hrs [11]: 79.4
EC50 [12]: 50 nM
EC50 [13]: 100 nM

B2: Affy7-Y6I CAR (other)
chain: B1 chain with Y113I
notes: CAR on transduced human T cells; Y to I in HC CDR3; P2A remnant not included; also called MycT-Affy7-Y6I CAR-SSTR2
percent cytotoxicity, SNU638, 24 hrs [1]: 67%
percent cytotoxicity, SNU638, 48 hrs [1]: 83.6%
percent cytotoxicity, SNU638, 72 hrs [1]: 93.2%
percent cytotoxicity, Hs746T, 24 hrs [2]: 1.5%
percent cytotoxicity, Hs746T, 48 hrs [2]: 45.4%
percent cytotoxicity, Hs746T, 72 hrs [2]: 69.4%
percent cytotoxicity, H1993, 24 hrs [3]: 11.7%
percent cytotoxicity, H1993, 48 hrs [3]: 45.8%
percent cytotoxicity, H1993, 72 hrs [3]: 73.5%
cytotoxicity, Normal Human Lung Cells, 8 hrs [5]: 23.1
cytotoxicity, Normal Human Lung Cells, 16 hrs [5]: 27.5
cytotoxicity, Normal Human Lung Cells, 24 hrs [5]: 26.9
cytotoxicity, Normal Human Lung Cells, 32 hrs [5]: 29.7
cytotoxicity, Normal Human Lung Cells, 40 hrs [5]: 29.9
cytotoxicity, Normal Human Lung Cells, 48 hrs [5]: 30.9
cytotoxicity, Normal Human Liver Cells, 8 hrs [7]: 7.8
cytotoxicity, Normal Human Liver Cells, 16 hrs [7]: 6.2
cytotoxicity, Normal Human Liver Cells, 24 hrs [7]: 7.4
cytotoxicity, Normal Human Liver Cells, 32 hrs [7]: 17.8
cytotoxicity, Normal Human Liver Cells, 40 hrs [7]: 16.4
cytotoxicity, Normal Human Liver Cells, 48 hrs [7]: 13.6
cytotoxicity, Normal Human Kidney Cells, 8 hrs [9]: 20.5
cytotoxicity, Normal Human Kidney Cells, 16 hrs [9]: 20.9
cytotoxicity, Normal Human Kidney Cells, 24 hrs [9]: 25.8
cytotoxicity, Normal Human Kidney Cells, 32 hrs [9]: 27.6
cytotoxicity, Normal Human Kidney Cells, 40 hrs [9]: 29.7
cytotoxicity, Normal Human Kidney Cells, 48 hrs [9]: 33.9
cytotoxicity, Normal Human Colon Cells, 8 hrs [11]: 15.1
cytotoxicity, Normal Human Colon Cells, 16 hrs [11]: 18.8
cytotoxicity, Normal Human Colon Cells, 24 hrs [11]: 20.8
cytotoxicity, Normal Human Colon Cells, 32 hrs [11]: 28.9
cytotoxicity, Normal Human Colon Cells, 40 hrs [11]: 32.5
cytotoxicity, Normal Human Colon Cells, 48 hrs [11]: 36.4
Fold Change [14]: 1830 fold
EC50 [13]: 183000 nM

B3: Affy6 CAR (control) (other)
chain: GSEQKLISEEDLGSQVQLVQSGAEVKKPGASVKVSCKASGYIFTAYTMHWVRQAPGQGLEWMGWIKPNNGLANYAQKFQGRVTMTRDTSISTAYMELSRLRSDDTAVYYCARSEITTEFDYWGQGTLVTVSSGGGGSGGGGSGGGGSDIVLTQSPDSLAVSLGERATINCKSSESVDSYANSFMHWYQQKPGQPPKLLIYRASTRESGVPDRFSGSGSRTDFTLTISSLQAEDVAVYYCQQSKEDPLTFGGGTKVEIKASTTTPAPRPPTPAPTIASQPLSLRPEACRPAAGGAVHTRGLDFACDFWVLVVVGGVLACYSLLVTVAFIIFWVRSKRSRLLHSDYMNMTPRRPGPTRKHYQPYAPPRDFAAYRSLRVKFSRSADAPAYQQGQNQLYNELNLGRREEYDVLDKRRGRDPEMGGKPRRKNPQEGLYNELQKDKMAEAYSEIGMKGERRRGKGHDGLYQGLSTATKDTYDALHMQALPPR
notes: Chimeric antigen receptor on transduced human T cells; P2A remnant not included; also called parent Affy6 CAR-T cells; parental Affy6
cytotoxicity, Normal Human Lung Cells, 8 hrs [15]: 38.4
cytotoxicity, Normal Human Lung Cells, 16 hrs [15]: 47.1
cytotoxicity, Normal Human Lung Cells, 24 hrs [15]: 54.7
cytotoxicity, Normal Human Lung Cells, 32 hrs [15]: 63.1
cytotoxicity, Normal Human Lung Cells, 40 hrs [15]: 76.4
cytotoxicity, Normal Human Lung Cells, 48 hrs [15]: 85.2
cytotoxicity, Normal Human Liver Cells, 8 hrs [16]: 28.4
cytotoxicity, Normal Human Liver Cells, 16 hrs [16]: 47.1
cytotoxicity, Normal Human Liver Cells, 24 hrs [16]: 59
cytotoxicity, Normal Human Liver Cells, 32 hrs [16]: 67.9
cytotoxicity, Normal Human Liver Cells, 40 hrs [16]: 76.8
cytotoxicity, Normal Human Liver Cells, 48 hrs [16]: 83.6
cytotoxicity, Normal Human Kidney Cells, 8 hrs [17]: 25.7
cytotoxicity, Normal Human Kidney Cells, 16 hrs [17]: 45.4
cytotoxicity, Normal Human Kidney Cells, 24 hrs [17]: 57
cytotoxicity, Normal Human Kidney Cells, 32 hrs [17]: 65.5
cytotoxicity, Normal Human Kidney Cells, 40 hrs [17]: 73
cytotoxicity, Normal Human Kidney Cells, 48 hrs [17]: 78.8
cytotoxicity, Normal Human Colon Cells, 8 hrs [18]: 24.6
cytotoxicity, Normal Human Colon Cells, 16 hrs [18]: 37.7
cytotoxicity, Normal Human Colon Cells, 24 hrs [18]: 46.4
cytotoxicity, Normal Human Colon Cells, 32 hrs [18]: 57.3
cytotoxicity, Normal Human Colon Cells, 40 hrs [18]: 72.3
cytotoxicity, Normal Human Colon Cells, 48 hrs [18]: 83.8
EC50 [12]: 20 nM
EC50 [13]: 20 nM
